Reference: paper PMC8064603

Target: bovine RNase B, biotinylated (bovine) (UniProt P61823)
Assay: BLI; biotinylated RNase B captured on streptavidin biosensors; purified fimbriae at 50 and 100 nM as analyte; 0.2% BSA in HBS; global fit: conformational change model for FimH^wt, 1:1 Langmuir model for FimH^FocH; one representative experiment

Sequence of UniProt P61823 (P61823 27-150): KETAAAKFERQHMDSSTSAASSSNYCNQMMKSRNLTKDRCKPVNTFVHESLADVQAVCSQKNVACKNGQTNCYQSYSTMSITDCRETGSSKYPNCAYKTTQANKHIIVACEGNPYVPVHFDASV

**Q.** What does the source list for “purified type 1 fimbriae carrying wild-type FimH adhesin (FimH^wt) of E. coli K12 (from UniProt P08191 22-300) (complex)”?
**A.** Kd: 149 nM; kact (rate of transition from LAS to HAS, conformational change model): 0.0072 s⁻¹; kinact (rate of transition from HAS to LAS, conformational change model): 0.0128 s⁻¹; koff (LAS dissociation rate, conformational change model): 0.256 s⁻¹; kon (LAS association rate, conformational change model): 1.1e+06 M⁻¹ s⁻¹
